From article PMC7613515, “Reading and erasing of the phosphonium analogue of trimethyllysine by epigenetic proteins” (Communications Chemistry, 2022)
Where two headings read alike, the source gives them in different places. Values belong to the compound of their own block, whether it stands above or below them. Square brackets hold non-standard residues; d marks the D form. Ends that are not written are not given here. Lys(Me3) = C[N+](C)(C)CCCC[C@H](N)C(=O)O

Legend:
[1] = biological target: T1, KDM4ATTD (JMJD2A, Q897-P1011) (Homo sapiens, UniProt O75164); assay: ITC, association of histone H3 peptides with KDM4ATTD; format: binding; settings: 25 °C, H3 1-10 peptide (350–600 µM) into reader (25–40 µM), Tris (50 mM), pH 7.5, from 3 to 5 experiments
T1 construct: KDM4ATTD (JMJD2A, Q897-P1011); made in house; host or cells: E. coli
T1 sequence (O75164 897-1011): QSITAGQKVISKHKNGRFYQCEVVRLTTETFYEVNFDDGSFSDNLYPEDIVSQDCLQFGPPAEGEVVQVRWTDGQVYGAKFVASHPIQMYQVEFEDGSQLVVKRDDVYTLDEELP
Description: (§1) We investigated the thermodynamics of association of the H3KP4me3 peptide with five representative human reader domains containing either a PHD zinc finger or TTD, i.e. KDM5APHD3 (JARID1A-PHD3, residues M1489–V1641)[10], TAF3PHD (R857–K924)[22], BPTFPHD (L2583–N2751)[23], SGF29TTD (R115–K293)[24] and KDM4ATTD (JMJD2A, Q897-P1011)[25], selected on the basis of their preference for binding Ν^ε-trimethyllysine over other (non)methylation marks (Kme0 < Kme1 < Kme2 < Kme3), and their domain and aromatic cage diversity. The recombinant readers were produced in E. coli following reported procedures. Isothermal titration calorimetric (ITC) analyses were used to determine the dissociation constant (Kd), the Gibbs free energy of binding (ΔG°), the enthalpy of binding (ΔH°), and the entropy of binding (ΔS°). […] (Table 1, Fig. 2, Supplementary Fig. 1).
(§2) The following purified reader domains: TAF3PHD (R857-K924), KDM5APHD3 (JARID1A, M1489-V1641), BPTFPHD (L2583-N2751), KDM4ATTD (JMJD2A, Q897-P1011) and SGF29TTD (R115-K293) were prepared as reported[10],[22]–[26]. The histone lysine demethylase were produced and purified to high purity via reported procedures KDM3A (JMJD1A, T515-S1317)[41], KDM4AJmjC[39] (JMJD2A, M1-L359), KDM4EJmjC (JMJD2E, M1–Q337)[34] and KDM7B[40] (PHF8, M37-N483 [NP_001171]). KDM5DJmjC was produced using an N-terminal hexa-His tagged KDM4D (KDM4DM1-L358) DNA construct, transformed into BL21(DE3) competent cells for recombinant protein production. Colonies were used to inoculate of LB media (50 mL) containing kanamycin (50 µg·mL^−1) and chloramphenicol (34 µg·mL^−1), which was placed in a 37 °C shaker overnight. The starter culture (10 mL) was used to inoculate TB media (6 × 1 L) containing kanamycin (50 µg·mL^−1) in 2 L baffled shaker flasks. After reaching an of OD600 of ~0.8, the temperature was reduced to 18 °C; at OD600 ~0.9 the cells were induced by the IPTG (0.5 mM) addition. After shaking overnight, the culture was centrifuged (5000 rpm, 10 mins), the media was decanted, and the cell pellet was suspended in Lysis Buffer [HEPES (50 mM), NaCl (500 mM), imidazole (20 mM), glycerol (5%) and TCEP (0.5 mM) in water (pH 7.4)]. The suspension was lysed by passaging through a high-pressure cell breaker (Avestin – EmulsiFlex-C5) for three rounds. The lysate was cleared by centrifugation (60 minutes, 36,000 × g, 4 °C), then loaded onto a Ni NTA gravity column. After extensive rinsing of the Ni-NTA gravity column with lysis buffer, the His-tagged protein was eluted in lysis buffer containing 300 mM imidazole. The eluted protein was concentrated and subjected to gel filtration chromatography using an AKTA Xpress system, an S200 16/600 gel filtration column, and GF buffer [HEPES (50 mM), NaCl (150 mM), glycerol (5%) and TCEP (0.5 mM) in water (pH 7.4)]. The protein identity was verified by LC-MS (ESI-TOF) observing a mass of 43759.7 Da, in accord with the predicted mass of 43751.6 Da.
ITC studies followed a reported procedure. The buffer used corresponded to that used in the final protein purification step. Briefly, TAF3PHD and KDM4ATTD: [Tris (50 mM) in water (pH 7.5)]; KDM5APHD3 and BTPFPHD: [Tris (50 mM), NaCl (20 mM) in water (pH 7.5)]; [Tris (25 mM), NaCl (50 mM), 1,4-dithiothreitol (1.0 mM) in water (pH 7.5)]. Experiments were conducted using ITC200 automated (GE Healthcare Life Sciences, USA) instrument at 25 °C. Histone peptide titrations were performed with the same reader batches. Solutions of the reader in buffer (25–40 µM) and of the histone H3 peptide (350–600 µM) in buffer were prepared. The prepared solutions were plated into a 96-well plate and inserted into the instrument for analysis. Experiments were performed according to manufacturer’s default settings: Plate pre-rinse syringe clean. A total of 19 injections were performed; each experiment was repeated 3–5 times. Heats of dilution for histone peptides determined in control experiments were subtracted from the titration binding data. […]

[2] = biological target: T2, SGF29TTD (R115–K293) (Homo sapiens, UniProt Q96ES7); assay: ITC, association of histone H3 peptides with SGF29TTD; format: binding; settings: 25 °C, H3 1-10 peptide (350–600 µM) into reader (25–40 µM), pH 7.5, from 3 to 5 experiments
T2 construct: SGF29TTD (R115–K293); made in house; host or cells: E. coli
T2 sequence (Q96ES7 115-293): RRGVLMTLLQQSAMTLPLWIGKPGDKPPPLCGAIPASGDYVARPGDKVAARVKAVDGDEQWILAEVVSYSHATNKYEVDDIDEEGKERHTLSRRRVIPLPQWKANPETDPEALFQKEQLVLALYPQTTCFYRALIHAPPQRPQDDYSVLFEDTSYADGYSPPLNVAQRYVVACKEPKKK
Description: as §1, §2
(§3) ITC studies followed a reported procedure. The buffer used corresponded to that used in the final protein purification step. […] Histone peptide titrations were performed with the same reader batches. Solutions of the reader in buffer (25–40 µM) and of the histone H3 peptide (350–600 µM) in buffer were prepared. […] Heats of dilution for histone peptides determined in control experiments were subtracted from the titration binding data. […]

[3] = biological target: T3, TAF3PHD (R857–K924) (Mus musculus, UniProt Q5HZG4); assay: ITC, association of histone H3 peptides with TAF3PHD; format: binding, human; settings: 25 °C, H3 1-10 peptide (350–600 µM) into reader (25–40 µM), Tris (50 mM), pH 7.5, from 3 to 5 experiments
T3 construct: TAF3PHD (R857–K924); made in house; host or cells: E. coli
T3 sequence (Q5HZG4 857-924 limits assumed): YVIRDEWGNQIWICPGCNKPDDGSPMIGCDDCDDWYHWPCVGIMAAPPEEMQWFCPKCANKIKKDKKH
Description: as §1
as §2, with “After extensive rinsing of the Ni-NTA gravity column with lysis buffer, the His-tagged protein was eluted in lysis buffer containing 300 mM imidazole. The eluted protein was concentrated and subjected to gel filtration chromatography using an AKTA Xpress system, an S200 16/600 gel filtration column, and GF buffer [HEPES (50 mM), NaCl (150 mM), glycerol (5%) and TCEP (0.5 mM) in water (pH 7.4)]. The protein identity was verified by LC-MS (ESI-TOF) observing a mass of 43759.7 Da, in accord with the predicted mass of 43751.6 Da.” left out
as §3, with “procedure.” for “procedure. The buffer used corresponded to that used in the final protein purification step.”

[4] = biological target: T4, KDM5APHD3 (JARID1A-PHD3, residues M1489–V1641) (Homo sapiens, UniProt P29375); assay: ITC, association of histone H3 peptides with KDM5APHD3; format: binding; settings: 25 °C, H3 1-10 peptide (350–600 µM) into reader (25–40 µM), Tris (50 mM), NaCl (20 mM), pH 7.5, from 3 to 5 experiments
T4 construct: KDM5APHD3 (JARID1A-PHD3, residues M1489–V1641); made in house; host or cells: E. coli
T4 sequence (P29375 1489-1641): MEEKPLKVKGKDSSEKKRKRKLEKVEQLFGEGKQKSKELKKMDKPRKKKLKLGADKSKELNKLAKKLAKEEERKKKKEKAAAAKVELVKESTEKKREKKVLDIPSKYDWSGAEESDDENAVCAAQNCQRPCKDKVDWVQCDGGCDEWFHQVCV
Description: as §1
as §2, with “After extensive rinsing of the Ni-NTA gravity column with lysis buffer, the His-tagged protein was eluted in lysis buffer containing 300 mM imidazole. The eluted protein was concentrated and subjected to gel filtration chromatography using an AKTA Xpress system, an S200 16/600 gel filtration column, and GF buffer [HEPES (50 mM), NaCl (150 mM), glycerol (5%) and TCEP (0.5 mM) in water (pH 7.4)]. The protein identity was verified by LC-MS (ESI-TOF) observing a mass of 43759.7 Da, in accord with the predicted mass of 43751.6 Da.” left out
as §3, with “procedure.” for “procedure. The buffer used corresponded to that used in the final protein purification step.”

[5] = cited from earlier work
Description: Some JmjC KDMs can also catalyse N-methyl arginine demethylation and with appropriately sized N^ε-substitutions some can catalyse forma ...

[6] = tested on: KDM4E; settings: reported, shorter H3_7-14K9me3 substrate; cited from earlier work
Description: Reactions were monitored using MALDI-TOF mass spectrometry (Fig. 5b–d). […] Some JmjC KDMs can also catalyse N-methyl arginine demethylation and with appropriately sized N^ε-substitutions some can catalyse forma ...

[7] = biological target: T5, BPTFPHD (L2583–N2751) (Homo sapiens, UniProt Q12830); settings: reported, ITC, H3 1-10, cited from earlier work
T5 construct: BPTFPHD (L2583–N2751); made in house; host or cells: E. coli

[8] = biological target: T2, SGF29TTD (R115–K293); settings: reported, ITC, H3 1-10, cited from earlier work
Description: (§4) N.D. not determined; N.M: not measured. Modification KDM5A PHD3 TAF3PHD BPTFPHD SGF29TT ...

[9] = biological target: T3, TAF3PHD (R857–K924); settings: reported, ITC, H3 1-10, cited from earlier work
Description: as §4

[10] = biological target: T1, KDM4ATTD (JMJD2A, Q897-P1011); settings: reported, ITC, H3 1-10, cited from earlier work
Description: as §4

[11] = biological target: T4, KDM5APHD3 (JARID1A-PHD3, residues M1489–V1641); settings: reported, ITC, H3 1-10, cited from earlier work
Description: page 30: Supplementary Table 5 Overview of reported ITC binding values of chromatin binding modules with H3 peptides (K d in µM) with various lysine modification. […] N.D. not determined; N.M: not measured. Modification KDM5A PHD3 TAF3PHD BPTFPHD SGF29TT ...

Kd [1]: 3500 nM
Kd [2]: 3200 nM
Kd [3]: 110 nM
Kd [4]: 520 nM
Compound: C[C@H](N)C(=O)N[C@@H](CCCNC(=N)N)C(=O)N[C@H](C(=O)N[C@@H](CCCC[N+](C)(C)C)C(=O)N[C@@H](CCC(N)=O)C(=O)N[C@H](C(=O)N[C@@H](C)C(=O)N[C@@H](CCCNC(=N)N)C(=O)N[C@@H](CCCCN)C(=O)N[C@@H](CO)C(N)=O)[C@@H](C)O)[C@@H](C)O [H3K4me3, reference compound]

Compound: C[N+](C)(C)C [^+Nme4, reference compound]
volume [5]: 105 Å^3

Compound: C[P+](C)(C)C.[I-] [^+Pme4, reference compound]
volume [5]: 115 Å^3

Compound: H3_7-14K9me3: shorter H3_7-14K9me3 substrate (AR[Lys(Me3)]STGGK; UniProt P68431 8-15, looked up, fragment)
Km [6]: 21.3 µM
kcat [6]: 0.0767 s⁻¹

Compound: K4Cme3: H3 1-10 peptide with K4Cme3 modification, Hintzen et al.
Kd ([7]; ref Hintzen et al. (SI ref 11)): 3800 nM

Compound: K4Cme3: H3 1-10 peptide with K4Cme3 modification, Hintzen et al. (ARTCQTARKS; Cys4 S-alkylated with 2-(trimethylammonio)ethyl = trimethylthialysine, a cysteine-derived trimethyllysine analogue (identity inferred from the cited Hintzen et al. work))
Kd ([8]; ref Hintzen et al. (SI ref 11)): 6100 nM
Kd ([9]; ref Hintzen et al. (SI ref 11)): 42 nM
Kd ([10]; ref Hintzen et al. (SI ref 11)): 3100 nM
Kd ([11]; ref Hintzen et al. (SI ref 11)): 150 nM

Compound: K4G: K4me3 in H3K4me3 substituted for glycine (ARTGQTARKS)
Kd ([9]; ref Kamps et al. (SI ref 9)): 36000 nM
Kd ([11]; ref Kamps et al. (SI ref 9)): 88000 nM

Compound: L-K4me3: H3 1-10 peptide with L-K4me3 modification, Belle et al.
Kd ([8]; ref Belle et al. (SI ref 8)): 1700 nM
Kd ([9]; ref Belle et al. (SI ref 8)): 82 nM
Kd ([10]; ref Belle et al. (SI ref 8)): 1100 nM
Kd ([7]; ref Belle et al. (SI ref 8)): 440 nM
Kd ([11]; ref Belle et al. (SI ref 8)): 110 nM
